# Target: T1, CcpA (Staphylococcus aureus USA300) (UniProt P99175)
# T1 sequence: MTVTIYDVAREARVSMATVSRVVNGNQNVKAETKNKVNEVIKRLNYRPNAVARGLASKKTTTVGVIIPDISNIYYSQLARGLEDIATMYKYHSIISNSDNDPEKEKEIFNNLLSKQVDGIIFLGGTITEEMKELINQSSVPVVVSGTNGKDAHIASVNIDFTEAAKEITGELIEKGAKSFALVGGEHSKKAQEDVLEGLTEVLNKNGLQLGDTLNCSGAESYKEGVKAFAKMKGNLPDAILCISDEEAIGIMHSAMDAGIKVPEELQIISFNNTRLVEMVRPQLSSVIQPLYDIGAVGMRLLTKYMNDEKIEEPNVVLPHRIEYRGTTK
# Assay: competition
# Settings: 10 mM Tris-HCl pH 8.0, 5 mM MgCl2, 1 mM DTT, 50 mM KCl, 0.05% Nonidet P-40, 2.5% glycerol, 25 C, 30 min; 6% native PAGE in 0.5x TBE
sequence,measurement,value
ATGCTTTACCAGCTTTGAATGCTGGAACTTTACTTGCTGGGATATCAATTTCTTTACCAGTTTGAGGGTTACGACCTTTACGTGCAGCACGTTCACGTACCTCAAAGTTACCGAAACCAATTAATTGTACTTTTTCACCTTTAGCAAGTGAGTTTTGGATTGATTCGAATACAGCATCTACTGCTGAACCAGCTTCTTTTT (double strand) [hu],binding,no binding

# From PMC12754628
